Source: patent US20230218519A1, “FLUID GEL COMPOSITIONS” (The University of Birmingham, priority 2020, published 2023)

Assays:
[1] = Release assay from PEG-DA fluid gel (trans-well, UV/Vis); assay type: physicochemical; conditions: 3% v/v PEG-DA fluid gel (Example 5.3, 500 rpm), into PBS at 37° C., 5 hrs
Procedure: • Active amounts: […] • Standard concentrations of active in PBS were prepared. • Standards were pipetted into a quartz cuvette (1 mm pathlength). • UV/Vis spectroscopy was used to measure absorbance between 200 and 700 nm wavelength. • Curves were plotted and used to determine standard curves which were used to determine concentrations. • 0.5 ml PBS was added to the well of a 24 well plate. • The PBS was incubated at 37° C. to equilibrate. • 0.1 ml of the fluid gel containing active was placed in a trans-well insert. • The trans-well insert was placed into a well containing PBS. • After a given time period the trans-well insert was removed and placed in a fresh well of PBS. • The release media was then removed and analysed using […] spectroscopy. Concentrations were derived from the standard curves and cumulative release plotted as a function of time.

fibrin gel = experiment: Matrix breakdown assay (fibrin gel); assay type: biochemical; conditions: fibrin gel 8.5 mg/ml, 60° C., images at various timepoints
Procedure: • Add proteinase K (10 mg) to PBS to make a total volume of 1 ml. • Mix well on a vortex mixer until dissolved.
• Add 0.9 ml of 3% v/v PEG-DA fluid gel prepared according to Example 5.3 to an Eppendorf. • To each gel add 0.1 ml of active in PBS. • Mix well using a vortex mixer. • Refrigerate for 24 hours before testing.
• 0.5 ml of fibrin gel (8.5 mg/ml) was formed in the wells of a 24 well plate. • 0.5 ml of PBS was added to each well. • 0.1 ml of fluid gel containing active was added to a trans-well insert and placed above the fibrin gel. • Samples were incubated at 60° C. to activate the proteinase K. • Images were taken at various timepoints and compared to (a) the control wells containing only fibrin gel+PBS; and (b) wells containing fibrin gel+proteinase k (no fluid gel carrier).

B1: proteinase K only: extracellular matrix remodelling agent, a proteinase (protein, UniProt P06873 106-384, looked up)
Proteinase K: AAQTNAPWGLARISSTSPGTSTYYYDESAGQGSCVYVIDTGIEASHPEFEGRAQMVKTYYYSSRDGNGHGTHCAGTVGSRTYGVAKKTQLFGVKVLDDNGSGQYSTIIAGMDFVASDKNNRNCPKGVVASLSLGGGYSSSVNSAAARLQSSGVMVAVAAGNNNADARNYSPASEPSVCTVGASDRYDRRSSFSNYGSVLDIFGPGTSILSTWIGGSTRSISGTSMATPHVAGLAAYLMTLGKTTAASACRYIADTANKGDLSNIPFGTVNLLAYNNYQA
release of active agent from fluid gel [1]: able to release | fibrin gel break down (fibrin gel): faster
